Assay results reported in the supplement of paper PMC10567573.

B1: TPD52L1 (parent)
chain: ISKKFGDMSYSIRHSISMPAMRNS
B2: PTPN9 (parent)
chain: LKGAFPARLKKVLIVGAPIWFRVP

Variants of: B1
Assay: protein stability index of a GFP-peptide fusion (GPS, HEK-293T) (PSI 1-6); higher = more stable
Conditions: c terminus: a fixed tail appended
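Note: lentivirally expressed fusions sorted by FACS into six bins by GFP to DsRed ratio, PSI derived from sequencing read proportions per bin multiplied by bin number.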

Row | Variant | protein stability index
1 | I16A | 2.76
2 | I16Y | 2.12
3 | I16E | 3.25
4 | I16V | 2.32
5 | I16K | 2.98
6 | I16T | 2.67
7 | S17M | 2.17
8 | S17A | 2.01
9 | S17H | 2.15
10 | S17V | 2.12
11 | S17G | 2.42
12 | S11M | 2.03
13 | S11T | 2.38
14 | S11D | 2.68
15 | S11K | 1.99
16 | S11Y | 2.06
17 | S11W | 1.67
18 | S11E | 1.97
19 | S11H | 2.41
20 | S9I | 2.59
21 | S9E | 2.34
22 | S9Y | 1.98
23 | S9L | 1.42
24 | S9G | 2.27
25 | D7H | 1.77
26 | D7Q | 2.04

Row | Variant | protein stability index
27 | D7V | 1.82
28 | D7K | 2.58
29 | D7T | 1.54
30 | D7N | 1.67
31 | D7W | 1.9
32 | D7M | 1.51
33 | R22I | 1.85
34 | R22W | 1.65
35 | R22G | 2.66
36 | R22T | 2.6
37 | K3P | 2.63
38 | K3C | 2.69
39 | K3Q | 2.25
40 | K3G | 2.25
41 | K3R | 2.16
42 | K3N | 2.5
43 | K3F | 4.67
44 | S2D | 2.94
45 | S2Y | 1.74
46 | S2R | 2.54
47 | S2C | 1.82
48 | S2I | 2.97
49 | S2K | 2.74
50 | S2G | 2.88
51 | S2H | 2.11
52 | G6N | 2.15

Row | Variant | protein stability index
53 | G6H | 1.88
54 | G6W | 2.38
55 | G6P | 2.75
56 | G6C | 1.98
57 | G6T | 2.62
58 | G6E | 2.31
59 | G6Q | 2.19
60 | G6S | 2.24
61 | G6A | 1.65
62 | A20M | 1.95
63 | A20Y | 2.17
64 | A20S | 2.04
65 | A20D | 3.36
66 | A20P | 2.36
67 | A20G | 1.67
68 | A20C | 2.38
69 | M18N | 2.28
70 | M18Q | 2.77
71 | M18R | 2.34
72 | M8Y | 1.54
73 | M8W | 2.42
74 | M8N | 2.88
75 | M8V | 2.38
76 | M8L | 2.27
77 | H14M | 2.44
78 | H14T | 1.9

Row | Variant | protein stability index
79 | H14F | 2.49
80 | H14Q | 2.28
81 | H14D | 3.35
82 | H14G | 1.88
83 | H14C | 2.73
84 | H14A | 2.15
85 | N23R | 2.14
86 | N23W | 2.39
87 | N23M | 2.05
88 | N23E | 2.28
89 | N23I | 1.77
90 | N23L | 1.98
91 | N23Y | 1.51
92 | N23A | 1.86
93 | N23F | 1.84
94 | S15I | 1.87
95 | S15R | 2.24
96 | S15N | 2.37
97 | S15H | 1.85
98 | S15C | 2.23
99 | S15A | 2.23
100 | S15K | 2.31
101 | P19Q | 2.33
102 | P19K | 1.83
103 | P19D | 2.2
104 | P19N | 2.04

Row | Variant | protein stability index
105 | P19E | 2.47
106 | P19T | 2.17
107 | P19I | 2.6
108 | P19Y | 1.7
109 | P19S | 1.97
110 | M21S | 2.46
111 | M21N | 2.68
112 | M21Q | 2.33
113 | M21Y | 2.46
114 | M21D | 2.75
115 | M21E | 3.36
116 | S24C | 1.92
117 | S24K | 2.21
118 | S24E | 2.15
119 | S24P | 2.33
120 | S24Q | 1.76
121 | S24L | 1.96
122 | S24Y | 1.77
123 | S24H | 2.42
124 | Y10D | 2.98
125 | Y10E | 2.88
126 | Y10T | 2.72
127 | I12P | 2.98
128 | I12W | 1.57
129 | I12D | 3.07
130 | I12E | 3.36

Row | Variant | protein stability index
131 | I12F | 2.63
132 | I12Y | 2.37
133 | K4S | 2.71
134 | K4D | 2.47
135 | K4L | 1.52
136 | K4M | 2.1
137 | K4I | 1.98
138 | K4C | 2.36
139 | K4R | 2.65
140 | F5Y | 2.56
141 | F5A | 2.97
142 | F5N | 2.48
143 | F5V | 2.51
144 | F5S | 2.67
145 | R13A | 2.21
146 | R13Y | 1.45
147 | R13T | 2.01
148 | R13H | 2.37
149 | R13M | 1.89
150 | I1R | 2.16
151 | I1P | 2.89
152 | I1V | 3.17

Variants of: B2
Assay: as above
Conditions: c terminus: a fixed tail appended

Row | Variant | protein stability index
153 | W20S | 2.41
154 | P24K | 3.06
155 | P24D | 4.03
156 | P24E | 1.31
157 | P24L | 3.02
158 | V23D | 2.11
159 | V23P | 2.07
160 | F21N | 2.65
161 | F21R | 2.39
162 | F21L | 1.57
163 | R22P | 3.02
164 | R22D | 1.87
165 | R22H | 2.47
166 | R22G | 2.34
167 | R22L | 4.03
